Earlier results as cited in paper PMC4394549.

Target: Arginyl-tRNA synthetase (Methanothermobacter thermautotrophicus) (UniProt O27496)
Sequence of UniProt O27496 (O27496 whole entry): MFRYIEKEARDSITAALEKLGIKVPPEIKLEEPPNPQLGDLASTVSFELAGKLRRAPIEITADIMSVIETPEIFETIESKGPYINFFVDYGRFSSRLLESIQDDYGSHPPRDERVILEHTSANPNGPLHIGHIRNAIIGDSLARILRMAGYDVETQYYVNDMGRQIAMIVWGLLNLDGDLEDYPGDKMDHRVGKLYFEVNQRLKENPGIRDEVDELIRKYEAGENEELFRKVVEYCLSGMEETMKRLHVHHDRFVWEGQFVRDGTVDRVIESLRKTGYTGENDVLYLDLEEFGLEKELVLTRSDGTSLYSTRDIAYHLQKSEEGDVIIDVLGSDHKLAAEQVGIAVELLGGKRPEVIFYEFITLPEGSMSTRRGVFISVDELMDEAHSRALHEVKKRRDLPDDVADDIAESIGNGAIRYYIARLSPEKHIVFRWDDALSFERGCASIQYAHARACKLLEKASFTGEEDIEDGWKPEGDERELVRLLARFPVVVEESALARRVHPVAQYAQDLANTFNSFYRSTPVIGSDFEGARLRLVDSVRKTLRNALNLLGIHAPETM

Seryl-tRNA synthetase (from UniProt O27194)
Kd: 250 nM
